These results are taken from PMC10850505, “Molecular mechanism of specific HLA-A mRNA recognition by the RNA-binding-protein hMEX3B to promote tumor immune escape”.

Data set [1] concerns the target T1, hMEX3B KH2 WT (Homo sapiens, UniProt Q6ZN04 156-230).
T1 sequence: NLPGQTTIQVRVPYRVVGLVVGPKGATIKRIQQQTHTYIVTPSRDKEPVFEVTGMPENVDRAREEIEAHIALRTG
In words: ITC; N 1.02; ITC at 298 K, protein injected into RNA, both dialyzed in the same buffer (composition not in the material; purification SEC buffer 2 M NaCl, 20 mM Tris pH 7.5); NMR at 298 K, 0.1 mM protein. The conditions noted are these: protein: recombinant; tags: modified pET28a without thrombin site (His tag likely retained).

In a further data set the target is T2, hMEX3B KH1/2 (G83D/G86D) (Homo sapiens, UniProt Q6ZN04 56-230, G83D;G86D).
T2 sequence: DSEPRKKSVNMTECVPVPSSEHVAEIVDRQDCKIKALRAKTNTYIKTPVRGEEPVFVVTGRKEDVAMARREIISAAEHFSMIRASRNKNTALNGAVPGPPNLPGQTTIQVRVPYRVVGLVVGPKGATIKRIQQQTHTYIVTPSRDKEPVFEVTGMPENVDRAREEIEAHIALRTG
In words: ITC; N 0.67; ITC at 298 K, protein injected into RNA, both dialyzed in the same buffer (composition not in the material; purification SEC buffer 2 M NaCl, 20 mM Tris pH 7.5); NMR at 298 K, 0.1 mM protein. The conditions noted are these: protein: recombinant; tags: 6xHis-SUMO cleaved (ULP1). In general terms: In ITC the heat of successive injections is recorded.

For data set [2], the target named is T1, hMEX3B KH2 WT. In words: ITC; N 1.79; ITC at 298 K, protein injected into RNA, both dialyzed in the same buffer (composition not in the material; purification SEC buffer 2 M NaCl, 20 mM Tris pH 7.5); NMR at 298 K, 0.1 mM protein. The conditions noted are these: protein: recombinant; tags: modified pET28a without thrombin site (His tag likely retained).
For data set [3], the target named is T3, hMEX3B KH1/2 WT (Homo sapiens, UniProt Q6ZN04 56-230).
T3 sequence: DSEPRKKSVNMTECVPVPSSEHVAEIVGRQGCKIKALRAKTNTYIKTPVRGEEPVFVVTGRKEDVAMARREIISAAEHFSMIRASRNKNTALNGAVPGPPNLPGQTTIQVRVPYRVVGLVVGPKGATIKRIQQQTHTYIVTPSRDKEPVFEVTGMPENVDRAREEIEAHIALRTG
In words: ITC; N 0.91; ITC at 298 K, protein injected into RNA, both dialyzed in the same buffer (composition not in the material; purification SEC buffer 2 M NaCl, 20 mM Tris pH 7.5); NMR at 298 K, 0.1 mM protein. The conditions noted are these: protein: recombinant; tags: 6xHis-SUMO cleaved (ULP1).

Data set [4] concerns the target T4, hMEX3B KH1 WT (Homo sapiens, UniProt Q6ZN04 56-144).
T4 sequence: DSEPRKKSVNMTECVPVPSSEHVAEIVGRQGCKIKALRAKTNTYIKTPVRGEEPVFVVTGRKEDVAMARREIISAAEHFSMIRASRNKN
In words: ITC; N 1.91; ITC at 298 K, protein injected into RNA, both dialyzed in the same buffer (composition not in the material; purification SEC buffer 2 M NaCl, 20 mM Tris pH 7.5); NMR at 298 K, 0.1 mM protein. The conditions noted are these: protein: recombinant; tags: modified pET28a without thrombin site (His tag likely retained).

In data set [5] the target is T5, hMEX3B KH1/2 (G177D/G180D) (Homo sapiens, UniProt Q6ZN04 56-230, G177D;G180D).
T5 sequence: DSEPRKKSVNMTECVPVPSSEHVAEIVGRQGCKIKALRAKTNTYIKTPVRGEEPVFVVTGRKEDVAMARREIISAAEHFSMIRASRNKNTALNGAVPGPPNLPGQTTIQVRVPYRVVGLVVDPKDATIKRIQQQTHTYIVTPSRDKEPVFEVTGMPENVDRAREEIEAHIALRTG
In words: ITC; N 0.89; ITC at 298 K, protein injected into RNA, both dialyzed in the same buffer (composition not in the material; purification SEC buffer 2 M NaCl, 20 mM Tris pH 7.5); NMR at 298 K, 0.1 mM protein. The following applies: protein: recombinant; tags: 6xHis-SUMO cleaved (ULP1).

Data set [6] addresses T6, hMEX3B KH1/2 (T196A/R199A) (Homo sapiens, UniProt Q6ZN04 56-230, T196A;R199A).
T6 sequence: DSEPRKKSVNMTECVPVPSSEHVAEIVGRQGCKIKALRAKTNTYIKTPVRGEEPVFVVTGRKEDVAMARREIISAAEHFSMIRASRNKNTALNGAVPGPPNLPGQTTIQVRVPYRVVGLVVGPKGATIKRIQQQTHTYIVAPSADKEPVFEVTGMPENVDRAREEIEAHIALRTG
Description: ITC; N 0.68; ITC at 298 K, protein injected into RNA, both dialyzed in the same buffer (composition not in the material; purification SEC buffer 2 M NaCl, 20 mM Tris pH 7.5); NMR at 298 K, 0.1 mM protein. The conditions noted are these: protein: recombinant; tags: 6xHis-SUMO cleaved (ULP1).

The target in data set [7] is T7, hMEX3B KH1/2 (T102A/R105A) (Homo sapiens, UniProt Q6ZN04 56-230, T102A;R105A).
T7 sequence: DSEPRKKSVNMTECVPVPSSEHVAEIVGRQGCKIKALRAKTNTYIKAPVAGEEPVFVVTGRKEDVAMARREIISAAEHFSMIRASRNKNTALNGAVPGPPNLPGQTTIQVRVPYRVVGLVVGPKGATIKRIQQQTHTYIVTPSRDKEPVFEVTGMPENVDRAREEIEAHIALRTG
Description: ITC; N 0.79; ITC at 298 K, protein injected into RNA, both dialyzed in the same buffer (composition not in the material; purification SEC buffer 2 M NaCl, 20 mM Tris pH 7.5); NMR at 298 K, 0.1 mM protein. The conditions noted are these: protein: recombinant; tags: 6xHis-SUMO cleaved (ULP1).

In a further data set the target is T8, hMEX3B KH1/2 (TR4A) (Homo sapiens, UniProt Q6ZN04 56-230, T102A;R105A;T196A;R199A).
T8 sequence: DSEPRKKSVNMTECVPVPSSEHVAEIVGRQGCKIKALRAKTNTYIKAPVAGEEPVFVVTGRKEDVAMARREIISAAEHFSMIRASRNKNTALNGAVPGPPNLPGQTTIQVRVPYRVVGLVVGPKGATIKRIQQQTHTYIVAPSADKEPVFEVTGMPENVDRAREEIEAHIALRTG
Description: ITC; ITC at 298 K, protein injected into RNA, both dialyzed in the same buffer (composition not in the material; purification SEC buffer 2 M NaCl, 20 mM Tris pH 7.5); NMR at 298 K, 0.1 mM protein. The following applies: protein: recombinant; tags: 6xHis-SUMO cleaved (ULP1).

Another data set concerns the target T9, hMEX3B KH1/2 (G4D) (Homo sapiens, UniProt Q6ZN04 56-230, G83D;G86D;G177D;G180D).
T9 sequence: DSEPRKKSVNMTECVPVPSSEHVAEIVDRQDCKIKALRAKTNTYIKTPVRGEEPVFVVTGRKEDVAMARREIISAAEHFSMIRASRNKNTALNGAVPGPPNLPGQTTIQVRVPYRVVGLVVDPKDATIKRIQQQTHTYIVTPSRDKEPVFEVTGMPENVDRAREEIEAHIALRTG
The description is as above. The following applies: protein: recombinant; tags: 6xHis-SUMO cleaved (ULP1).

Data set [8] deals with T3, hMEX3B KH1/2 WT. The data set is described as above. The following applies: protein: recombinant; tags: 6xHis-SUMO cleaved (ULP1).
For data set [9], the target named is T3, hMEX3B KH1/2 WT. Description: ITC; N 0.96; ITC at 298 K, protein injected into RNA, both dialyzed in the same buffer (composition not in the material; purification SEC buffer 2 M NaCl, 20 mM Tris pH 7.5); NMR at 298 K, 0.1 mM protein. The conditions noted are these: protein: recombinant; tags: 6xHis-SUMO cleaved (ULP1).
Data set [10] addresses T1, hMEX3B KH2 WT. In words: ITC; ITC at 298 K, protein injected into RNA, both dialyzed in the same buffer (composition not in the material; purification SEC buffer 2 M NaCl, 20 mM Tris pH 7.5); NMR at 298 K, 0.1 mM protein. The conditions noted are these: protein: recombinant; tags: modified pET28a without thrombin site (His tag likely retained).
The target of data set [11] is T4, hMEX3B KH1 WT. The description is as above. The conditions noted are these: protein: recombinant; tags: modified pET28a without thrombin site (His tag likely retained).
Data set [12] addresses T3, hMEX3B KH1/2 WT. Description: ITC; N 0.89; ITC at 298 K, protein injected into RNA, both dialyzed in the same buffer (composition not in the material; purification SEC buffer 2 M NaCl, 20 mM Tris pH 7.5); NMR at 298 K, 0.1 mM protein. The following applies: protein: recombinant; tags: 6xHis-SUMO cleaved (ULP1).
For data set [13], the target named is T4, hMEX3B KH1 WT. The description is as above. The conditions noted are these: protein: recombinant; tags: modified pET28a without thrombin site (His tag likely retained).
Data set [14] deals with T3, hMEX3B KH1/2 WT. In words: ITC; N 0.94; ITC at 298 K, protein injected into RNA, both dialyzed in the same buffer (composition not in the material; purification SEC buffer 2 M NaCl, 20 mM Tris pH 7.5); NMR at 298 K, 0.1 mM protein. The conditions noted are these: protein: recombinant; tags: 6xHis-SUMO cleaved (ULP1).
The target in data set [15] is T3, hMEX3B KH1/2 WT. In words: ITC; N 0.84; text says larger than 1.11 uM; ITC at 298 K, protein injected into RNA, both dialyzed in the same buffer (composition not in the material; purification SEC buffer 2 M NaCl, 20 mM Tris pH 7.5); NMR at 298 K, 0.1 mM protein. The following applies: protein: recombinant; tags: 6xHis-SUMO cleaved (ULP1).

Regarding CUGAGC (ssRNA) [6-nt RNA CUGAGC], the dissociation constant (Kd) (usually the concentration at which binding is half-saturated) with hMEX3B KH2 WT [1] came to 9.57 ± 0.99 µM. For CUGAGCUGUAAC (ssRNA) [12-nt RNA], the dissociation constant (Kd) turned out to be 10.4 ± 1.29 µM with hMEX3B KH1/2 (G83D/G86D); 21.7 ± 6.87 µM with hMEX3B KH2 WT [2]; 43.6 ± 7.63 nM with hMEX3B KH1/2 WT [3]; 26.2 ± 7.4 µM in the data set with hMEX3B KH1 WT [4]; 7.42 ± 1.32 µM in data set [5]; 5.98 ± 0.59 µM in data set [6]. Moreover, the dissociation constant Kd in data set [7] was 2080 ± 290 nM. Also, the binding result with hMEX3B KH1/2 (TR4A) and with hMEX3B KH1/2 (G4D) was “no binding” each time.

As for CCCCCCCCCCCC (ssRNA) [C12 RNA], the binding result with hMEX3B KH1/2 WT [8] is “no binding”. As for CCGAGCUGUAAC (ssRNA) [12-nt RNA U2C], the dissociation constant Kd with hMEX3B KH1/2 WT [9] turned out to be 720 ± 90 nM. Take CCCCCC (ssRNA) [C6 RNA]: the binding result with hMEX3B KH2 WT [10] and with hMEX3B KH1 WT [11] was “no binding” throughout.

Turning to CUGAGCUGUCAC (ssRNA) [12-nt RNA A10C], the Kd in the data set with hMEX3B KH1/2 WT [12] was determined as 1580 ± 240 nM. In the case of CUGCGCUGUAAC (ssRNA) [12-nt RNA A4C], the dissociation constant Kd with hMEX3B KH1/2 WT [3] stood at 2100 ± 310 nM. As for UGUAAC (ssRNA) [6-nt RNA UGUAAC], in the data set with hMEX3B KH1 WT [13], the Kd turned out to be 10.3 ± 0.61 µM. Turning to CUGAGCUGUACC (ssRNA) [12-nt RNA A11C], the Kd in the data set with hMEX3B KH1/2 WT [14] was determined as 890 ± 90 nM.

On to UGUAACCUGAGC (ssRNA) [switched 12-nt RNA], for which the equilibrium dissociation constant (Kd) with hMEX3B KH1/2 WT [15] was over 1110 nM.
